From a protein production outcome set (Wang et al. 2014)

Assay: label from the status in PepcDB records

Sequence | protein production
MMSNLCKYGPPPDSDSDSSYDGFYFSDKVKRSKPAPYVDPEQKLYDAVVAGDLKTMQEEMRKLVLQVDQPVKGGLNLLMLACREGHYKIVEWLLERAGANVNRQLDSLMPLMMACNTTHKDPCLAERIVGLLLRHGAVINVSEKYGMTPFMFACQNGFAGVVRLLIKDASFDAVDNQGCTAIFHAIEKNHVEVVKLLVEAGANATIANNKGYTPTQVAECHGYYDLLEILPRPASTYLVPTHFLGYNTLRDHIPRIFLKSDCPEYFQELNGILEAINIGNMVQYFAIARISLADFLVMDEQSLREIGIEYPIFRHKILTGILDFHLHHWSNSSIARVKKDEMNNFYEILLITASHLQHLVIIQASLRFILKNQEHNKMGQPSEMQVAAMKSNLQGYRDVLNQITKTVKYLGSFSPSQNPLFIDFNEILAERKRKKVRSYFKYTTIILGISVFICLKCKWFS | failed
MMSQSERPDVAEIRVPFRDVDMNGQMFLASYISYAESVLASFWSSRPDVDDEPVYSPSKVSCFLHRPLHYDEPATFTATIDKIGVRSIGFLISIDTGEERAAEVEIIWQAHAPEDQSPASLPEETRDWLYRFLN | failed
MMSTTLNTRQATTADIPFLARIEYEASLPPLNHCFWDDLLDGTGTTALQFIEAELKADACNWGNVPDFLILEAGGQPVAAAAGYVPGTDDYCPLCLSQLGAIAKELNWGEETLEGFREHYVGLWGGNLRPLFLTPQATWIIENVAVLPEARGQGFGKALLRALLAKGRSQGHEFAGIMVINGNDRARHTYESVGFKPYQTFYKDYFWEQFKIDFPGVTKFGMRLN | failed
MMSYDAETGIAKVKCQSQSTCGACSARETCGTESLSELNGKRGEHIFTLETITPLRTDQMVEIGLEEKSMLFSALLMYIVQLFTLLVATLLSSYISENELIRAILIFMLTALSFVMVKRYTRKLGQQTEFQSVLLRVLF | failed
MMTALATVTGVERHGKQYEIDLSCEQQTSCSSCSSQKSCGTGVVTKAIGNKSLSWHLRTEKNVQVGQVVEIGFPESSLIKS | failed
MMTFNLREQQKRLQARMDELRAEIAFAQKGEKPWPYRSCLMREGRGYCEKHGEYHTHILVWSDRNGEDREEISCCPDCLIAEANDLTMELSSIKAEELTDNAGIALRFRDCEFDNYLEVNPGAARNLAACRRYAENWPDMLENGTSLVMTGSCGTGKNHLAVAMAKHIIRNYLASVEITDVMRLTRAVKNCWRNDSEKTADEVIERYASMDLLIIDEVGVQFGSAAEMAILQEIINARYESILPTILISNLSPEELWAFISPRIADRITDGGRNWLSFNWPSYRSRIRGVAALEHHHHHH | failed
MMTKYGVVGTGYFGAELARFMSKVEGAKITAIYDPVNAAPIAKELNCVATATMEALCSHPDVDCVIIASPNYLHKAPVIAAAKAGKHVFCEKPIALNYQDCKDMVDACKEAGVTFMAGHVMNFFHGVRHAKALIKAGEIGEVTQVHTKRNGFEDVQDEISWKKIRAKSGGHLYHHIHELDCTLFIMDETPSLVSMAAGNVAHKGEKFGDEDDVVLITLEFESGRFATLQWGSSFHYPEHYVLIEGTTGAILIDMQNTAGYLIKAGKKTHFLVHESQAEDDDRRNGNISSEMDGAIAYGKPGKRTPMWLSSIMKLEMQYLHDVINGLEPGEEFAKLLTGEALEHHHHHH | failed
MMTLVILLLFLLFCVLVFWISITFSIKYVLIFTAFLFSGLLVYYSFLTLAGLVHRSRKQKDRTLEHYPSVDILIPAHNEGVVIKDTLEAMAKIEYPGKLTVYLLNDNSQDETPEIGDDFDKAYAHIRHIRVPPGEPKGKSRVLNYGLSISDGEYFCVYDADNQPEPHALRMLVEHAETTEDAVGAVGHVRTVNEKRNWLTRMISLEFQIFQLLMQSGRWLLFQTGSLTGTNMLLRRAALEELGGYDPYAIAEDAELTLRITQKGYLLPIVPESITWEQEPEHLKILIKQRTRWLQGNLYILEKMFSSLSFFKGKLLVHSLQQVLVYVVFWLFLIISNVWFVIGLLGIFQIQYSIPLLFMWYVAYVTYVSQLFSAQSVERTFTPTNIFISVIMYFTYAQLFTYLFIRSLILYLRAKSKKQVIGWDKTVRFKKDK | failed
MMTQPMPGKPAEDAENELDIRGLFRTLWAGKLWIIGMGLAFALIALAYTFFARQEWSSTAITDRPTVNMLGGYYSQQQFLRNLDVRSNMASADQPSVMDEAYKEFVMQLASWDTRREFWLQTDYYKQRMVGNSKADAALLDEMINNIQFIPGDFTRAVNDSVKLIAETAPDANNLLRQYVAFASQRAASHLNDELKGAWAARTIQMKAQVKRQEEVAKAIYDRRMNSIEQALKIAEQHNISRSATDVPAEELPDSEMFLLGRPMLQARLENLQAVGPAFDLDYDQNRAMLNTLNVGPTLDPRFQTYRYLRTPEEPVKRDSPRRAFLMIMWGIVGGLIGAGVALTRRCSK | not failed
MMTTNTEYAPYRLELVNITKRYGGLVANDHISLKVAAGEIHAVLGENGAGKSTLMKIIYGAVKADEGEIVWNGRSVTVDSPAAARRLGIGMVYQHFSLFETLTVVENIALGLEEKFDLAHLAQRVVEVSEKYGLPIDPQRMVHSLSVGERQRVEIVRCLLQNPSLLILDEPTSVLTPQAVQVLFQTLRRLASEGVSILYISHKLNEIQSLCDTATILRGGQVTGTAIPKQETTASLAKMMIGRDLPAYQQHAYEGVQQPIFQVKQLSIPAQDMFGTSLKEINLSVNTGEILGIAGISGNGQAELLTALSGETTSLKESFWLDGQAIGHLHAGQRRKLGFGFVPEERLGRGAVPAMSLTENTLLTAFRMGMTRWGLVNYAKASAFAQACISKFGVKASGSDAAARSLSGGNLQKFIVGREIMQQPKVMVVAQPTWGVDVGASAFIRQTLIDLSRQGVAIVVISEELEELFEISDRIAVLAAGQLSPPQPVNETNAEQIGLLMSGLQRDSQPQEDVIRVSI | failed
MMVISEKVRKALNDQLNREIYSSYLYLSMATYFDAEGFKGFAHWMKKQAQEELTHAMKFYEYIYERGGRVELEAIEKPPSNWNGIKDAFEAALKHEEFVTQSIYNILELASEEKDHATVSFLKWFVDEQVEEEDQVREILDLLEKANGQMSVIFQLDRYLGQRE | not failed
MMVPDVSNFAVILTTSGAILLIAYLTAISARDVIRLLISLELMFAAVFLAIVPLFSINPPMAYAVAIITAFTSSTELMVLVTAIILLDRRKRGIDVDKVAVGGDSL | failed
MMWIPYNQGFHAGPKCLTVVFIYLLNMKVLRHIYRFLMELYGPQGWWPLLDRDTMTLRYHPGDYTPPSDDGDVFEVITGSILTQNTSWDSAASALRNLAAMDALKPHRILSLDDAELEAAIRCAGFYRQKVSYLREMAGFFISLEGSTPSRKELLKVRGVGPETADSVLLYAYRKPEFVVDAYTRRILTHLGLIAGDESYHRIKELFERSLEPDFRVFQEYHALIVRHGKSYYRGRVHGDGDPLEHHHHHH | failed
MMWNLIKNEFIKLRYKRKYIICTIVFALICIGFCAVYVKMQKASTPDAAIQYYKDAKSSLQSKEKNIKDATLKQQYDQQISQLDEQIKQYQQSKNQGNSNWKKQLKNTIDSLKDEKNQAADITENTAKESYNKQIVFYQYLLNHNIKPQDNNSLSTFQLLQSLLKLIGYILIPIIIAIFSADIVSGEYTPPTIKVLLSKPASRAKILASKFIASAISCIAIILLIELITYLITGIAYGFDNPSYPVLVGTKYMNSGIKLTQDSTGLIPILGSSYVIPLWQFLIEMFLFQILFIIGCCSFFLLLSVVLRSSVLSMTLSIMIVIALNIISQISALHVIMPFLFTNYGSPYDILTNSIPSTSGLTFTTAIFGVIYLIIFTILCYGIANYSFKKKDMTV | failed
MMYPYVRLFMEMRRARRLDPLPVLGTHRSSHRCLPWDLAPWRELNNGRTLTLFDLGRAPLLVRTGMQRICSEKGWGMTVAGSSVRYRRRVVLMERLEMVSRCLGWDGRFFYMEQSLWRKGDCTSHMLLRAATTTGSGIVPPAEVAAALGAGESPPLPDWAQAWIEADALRPWPPAALEHHHHHH | failed
MMYRNQCTAKEKLMNRINEVSFAVNDVLLYLDTHPCCEEAISFYQECEQERQKLLKEYAQCYGPLTVDAALESGGDTWKWVQQPFPWETEGGCRLEHHHHHH | not failed
